Patent publication US9371519B2, “Complex type sugar chain hydrolase” (National Institute of Advanced Industrial Science and …, priority 2011, dated 2016)

B1: Endo-Zr: endo-β-N-acetylglucosaminidase from Zygosaccharomyces rouxii ATCC2623, amino acid sequence SEQ ID NO. 13, 639 amino acids (protein, listed as Zygosaccharomyces rouxii)
chain: MKRINQVPGKPEITSLYFDDLNSLQRWFDKGFMDSRDLSNVPKERYSNYVKFEKDSIITIPNLSARKTEIIVCHDFKGGYQSGHDLYPNGQYGTESCKPYSLRYPEIVDKFVYFSHHCVTIPPSPWTNYLHRHSIPVLGTLILEHYPHNGELFKKNAKGEFLYVKYLVELCRKFHFEGWLINFETVFGNNSKQVIPFLRELTARVECEIYGGSVIWYDAFTTFSNKPSHQNEVNLFNYDAYENSSQFMTNYMWDSHNVGNSLRNVGALGMHSHVALGVDVWGRNMQVCRGGFESNIAIYYAKRFGTNAVIFAPGWTYENFGEDQFYEKDDIFWGNIKSTLQLDSYSDSQLSSWFVSESKKTRYFTTFFSTGSGNFFNLNGRRISNDNWVQLGLSTPFPVNSHSYLSFKDSFVGGSCLALPLSPMENGKLHLFRFEQFIKDQQKTSDSEIRVKLSYKSLGALPPVKLVIKCFVIRRGKRSKTILKVDDVSLVLPLSHSACQTAQGSTKWAVVEQIVPLPSLESRFLEEYYVEDAHLEWTMDNNHDEWLMVPERTEDLDCKLLIGSLCLEIGPHEDNNKRQIVRNGPQLSWQDNESSFMWLKLQDGKLDSVLFTPTTKVNGKQPTILECGRNGTLKFVVKK
B2: Endo-Om: endo-β-N-acetylglucosaminidase from methylotrophic yeast Ogataea minuta IFO10746, amino acid sequence SEQ ID NO. 1, 772 amino acids (protein, listed as Ogataea minuta)
chain: MAQSQLLGGAVRPVFFDKLEELRRWHTQSANLSRESELDSLNVATEPFSSYERAQTGSGSRSSEPVPGDKEDPPIKLMVCHDFKGGYQDYEDAQPLGYFPHPTGSRYFLQYPQLIDQFVYFSHHRVTVPPVNWINFCHRNGIKCFGTVIFEGNASKDFEELDRLVSRDEKGDFVFVDALIKLAAHYGFDGYLLNIETTFSNTKIAADLEPFAEQLKSGLHCLDSKNELIWYDSYVFPANKVSYTNGVTESNYNFFSLSDAFFSNYWWNIKNLQENIKNVGVLGVQKKIYVGYDVWGRGTLVGKGGFDSSLACKMIAKFKSNVALFAPAWTYESLGPKDFNQNDARFWIGLFENESSISSTVPPHSSAVYKINESSFIFYTNFSSGEGNRFFSKGSEVYRKNWVNGSLQFDLPIDLHRKDKNGLQWALDKSDAFHGGACLEIKYSEIKDENGYQIFNNQMVSDFTLFNFTKECHFPTVNVKVTYKLNHKTKSTFKIKIKYIIERRFRSVQTVRTGYLTIPLLSTSGKWFTVEESFQINLQTSHEYIVLESAHVTYDEDRSADSFFRSYIVEDSAITSVIDNEEYEKLINSEIYNDDEDEDWILVPSDVSISSSESQSNDSKTQYLGRKLFGNKSTPKTRTLEGTAPLLRIGEFAIISANNYPSSNFLAVTSVKSIESSRLEGDSLVLLNWQVGEGHQKGVCYYIIYVNGAVVGLSVAPKFIYQDTELASENSASARSNYKKSGLGSSSDRKSKVRVDSVDKLGNVFTGSEVWV
B3: Endo-Pa: endo-β-N-acetylglucosaminidase from Pichia anomala ATCC36904, amino acid sequence SEQ ID NO. 9, 656 amino acids (protein, listed as Pichia anomala)
chain: MQHDHAAIKFEEDSISSQRFSSLDEVEKWYNTKNRSPLDDLRIPRESLSHYNRFRDNNDEIKVLVCHDFKGNYQEGEDENPLGYFPHSSGQHYFIQFPSLVDLFIFFSHYKIAVPPVSWINSLHRQGIPVLGTLIFEGTDVSESDKLLEKNENGDFKYLEILCELVRHYGFDGWLVNMESHFSSVAKAQDLLLFDEALRSTLHLKVPGSKLIWYDSLITQKNRVFYQNAVNEWNYDHFSTSDLFFTNYWWNEEDLKRNILNIGLQGVKQKLFVGVDIWGRGSRIGNGGFESGLAINYLKRYSTNVALFAPAWTYENFEEDQFLIKDRKFWIGDQTSDETGGSVATYVSHYTTPVYVKDQNVKFYTNFSVGEGTKYRVFAHTVFKNNWVNGNLQLPTPIIDNEKRIDIYYKESFNGGSSLKVTQRNSILNDGKSNILQLFSFKNDIHSNNLNVSVSFKYLSEIPLNSTFQLEIKFYIERRYRSVTRVRDGTFKLPLAFSNKNWKYIETSFALPRLQIREHFVLEGLQIRWVDNVDELSSSIGTSGDFTESWIIVPQNSDPNAVYELLIGDLLVEGIKTANGNIDAVTKLSRKITLDSRSILATWKDDTEVLYWIIYVNAKFLGIAHKSLWRVQRGDKLRVDVFTRSGKLVKGEDIFI
B4: Endo-Cp: endo-β-N-acetylglucosaminidase from Candida parapolymorpha DL-1 ATCC26012, amino acid sequence SEQ ID NO. 5, 745 amino acids (protein, listed as Candida parapolymorpha)
chain: MPRNTAKHSSLPQTNLPLSSLESSFFDSLDELANWERRIHEKSFELDELNKPTEKLAHYTRARQQSTSEDVKLLVCHDLKGGYQVNEDEDPLGYFPHPDGQHYFLQYPQLVDKFVYFSHHRVSIPPVSWINVCHRNAIKCLGTVIFEGNTYRDFEEADKLLTKQDGEYVFVRCLVALVEYFQFDGYLFNIETRFSNTRIASLLEPFLEQLRAELHVRNPSTELIWYDSYIYPENRVLYKNGVTEANYNFFSCCDSFFTNYWWNVKHLQDNIKNVGVLGSRLKVYAGYDVWGRGTMIGKGGYDSALACQMIKKYRSNVALFAPAWTYEYLARKDFTQNDTRFWIGLFDGESSMATTFKPYSSPLYKINDSNFVFYTNFGSGEGCAFYECGEKVYRDNWVNGSLQMEIPYAIHTRNKNGIQWTLSKEDSFHGGSCVEIKYNEVVDDKGYQVFNNQTINSFSLFSFVQDCSFPTVNVKLTYKLNHKTKSFFKLKIGYYIERRYRTVQKVRSGCLVVPLLSTNDQWFTIEEPFHVSLQNSHEFIVLDSATIFYEETEDPFMRAHVVEDQSTSSVIDNEEYEKLMNSEIYFDDEDEDWILVPSDISMESTDNGGRENHTWKVISNQIRKKHPKSHPSTSPVLKLGELAIINANDYPSDSFFKLMPVNSIDVRRWEGKILLIWKTNQDSVLYHLIFVDDVFQGISLVSKFVFEDQAVDEKSFKTKSGGSTKVRIDTVNRLGILVKGTDM

assay: Study of optimal reaction conditions (pH and temperature); format: biochemical; conditions: 10 μM NGA2-Asn-Fmoc; buffers pH 3.5-9.0
Description: Study of the optimal reaction pH for Endo-Om was carried out as follows. A reaction solution containing any of various buffers having a final concentration of 100 mM, 0.5 M of NaCl, 10 μM of NGA2-Asn-Fmoc, and an Endo-Om purified enzyme solution (total volume: 10 μl) was incubated at 50° C. for 1 hour, and heated at 95° C. for 5 minutes, thereby stopping the enzyme reaction. The buffers used herein were a sodium citrate buffer (pH 3.5-5.5), a sodium acetate buffer (pH 4.5-6.0), a sodium phosphate buffer (pH 6.0-7.5), a MOPS-NaOH buffer (pH 6.5-8.0), and a Tris-HCl buffer (pH 8.0-9.0). The reaction solution was subjected to HPLC by the method described in Example 4, and the enzymatic activity was calculated. The optimal reaction temperature was studied by changing the reaction temperature in the activity measurement method described in Example 4 in the range of 10° C. to 60° C.
(§1) Study of the optimal reaction pH for Endo-Cp was carried out as follows. A reaction solution containing any of various buffers having a final concentration of 100 mM, 0.5 M of NaCl, 10 μM of NGA2-Asn-Fmoc, and an Endo-Cp partially purified enzyme solution (total volume: 10 μl) was incubated at 30° C. for 3 hours, and heated at 95° C. for 5 minutes, thereby stopping the enzyme reaction. The buffers used herein were a sodium citrate buffer (pH 3.5-5.5), a sodium acetate buffer (pH 4.5-6.0), a sodium phosphate buffer (pH 6.0-7.5), a MOPS-NaOH buffer (pH 6.5-8.0), and a Tris-HCl buffer (pH 8.0-9.0). The reaction solution was subjected to HPLC by the method described in Example 8, and the enzymatic activity was calculated. The optimal reaction temperature was studied by changing the reaction temperature in the activity measurement method described in Example 8 in the range of 10° C. to 70° C.
as §1, with “Endo-Pa” for “Endo-Cp”, “12,” for “8,”, “The optimal reaction temperature was studied by changing the reaction temperature in the activity measurement method described in Example 8 in the range of 10° C. to 70° C.” left out
Study of the optimal reaction pH for Endo-Zr was carried out as follows. […] The reaction solution was subjected to HPLC by the method described in Example 16, and the enzymatic activity was calculated. […]

Molecule | Optimal pH (optimal reaction pH)
B1 | 4.5-5.0
B2 | about 5.5
B3 | 5.0-5.5
B4 | about 5.5
